Experimental data published in doi:10.1101/2021.12.20.473401.

Biological target: SARS-CoV spike glycoprotein (S) (SARS-CoV) (UniProt P59594)
Test: SPR

VHH-72
Kd: 6.52 nM
